B1: FBF1 (parent)
chain: FGDSPKAEKRQIGDQEGPRPARST

Variants of: B1
Assay: protein stability index of a GFP-peptide fusion (GPS, HEK-293T) (PSI 1-6); higher = more stable
Settings: c terminus: a fixed tail appended
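Further: lentivirally expressed fusions sorted by FACS into six bins by GFP to DsRed ratio, PSI derived from sequencing read proportions per bin multiplied by bin number.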

Protein stability index: each site, then its substitutions
P18: Q 4.72 | I 4.17 | N 4.15 | C 5.22 | Y 4.5 | F 4.85 | A 5.27 | S 4.87 | M 4.71 | R 4.78 | H 4.77 | L 5.02 | G 5.33 | V 4.96 | E 5.54 | K 5.21 | T 4.69 | D 5.48
Q11: H 5.16 | W 3.76 | T 5 | Y 4.45 | I 4.61 | S 5.29 | D 5.29 | P 5.25 | F 3.59 | G 5.34 | M 5.22 | A 5.6 | K 4.86 | N 5.38 | C 5.06 | E 5.33 | L 4.7 | V 5.08
I12: R 5.17 | G 5.03 | D 4.89 | F 4.47 | E 5.27 | Q 5.5 | C 2.83 | P 5.12 | T 4.32 | A 4.73 | L 4.78 | V 5.4 | M 5.04 | Y 4.24 | N 5.5 | S 5.47
E16: G 3.41 | K 4.81 | L 4.66 | R 5.02 | Y 4.14 | I 4.83 | A 4.55 | S 5.27 | P 5.09 | N 4.98 | Q 5.19 | F 4.55 | T 5.03 | W 3.48 | C 4.79 | V 4.99 | M 4.57 | D 5.75 | H 4.21
G17: M 4.83 | V 4.42 | S 5.46 | Y 4.68 | E 5.34 | W 4.17 | N 5.06 | A 5.52 | K 5.02 | D 5.24 | Q 5.15 | R 5.1 | I 4.34 | L 4.77 | F 4.57 | H 4.83 | T 4.67 | C 4.94 | P 5.54
K9: P 5.54 | S 5.47 | I 5.23 | V 4.89 | Y 4.74 | R 5.46 | N 5.93 | H 5.22 | Q 5.53 | T 5.17
G13: S 4.82 | T 5.03 | L 4.17 | E 5.34 | A 4.98 | W 2.74 | M 4.24 | R 5.09 | N 5.01 | C 5.04 | H 4.69 | Q 5.45 | K 5.24 | V 4.54 | D 5.53 | I 4.44 | F 4.71 | P 5.16 | Y 4.86
D14: M 4.1 | A 4.87 | E 5.03 | T 5 | S 4.84 | P 5.09 | Q 4.42 | G 4.71 | K 4.5 | Y 4.54 | F 4.65 | L 4.68 | N 5.15 | I 4.38 | W 4 | R 4.82 | H 5 | V 4.72 | C 4.7
R10: H 4.63 | L 4.59 | M 5.06 | N 5.42 | D 5.29 | A 5.42 | Q 4.86 | W 3.46 | E 5.63 | S 5.44 | I 5.19 | T 5.58 | Y 4.97 | C 5.02 | K 4.76
Q15: N 4.69 | C 4.23 | I 4.65 | V 4.81 | Y 4.53 | R 4.28 | F 4.32 | S 5.72 | P 5.38 | H 3.53 | D 5.65 | T 4.96 | W 4.25 | M 5.03

Source: the supplement of paper PMC10567573
